Results: publication doi:10.1101/2023.03.31.534734 (bioRxiv, 2023)

Target: recombinant, non-biotinylated HLA-A*01:01 (α-chain, β2m, peptide […]) (Homo sapiens, HLA-A*01:01; peptide from …, strain)
Experiment: crystal structure

B1: Fab of rmAb E07 (Fab, V domains shown)
VH: QVQLQESGGGVVQPGGSLRLSCAASGFNFSNYGMHWVRQTPGKGLEWVASIPYDGSHQWHADSVKGRFTISRDNSKNTLYLQINSLRPEDTAMYYCSKARISYLSAPAWWFDPWGQGTLVTVSS
VL: QSVSTQPPSVSVAPGQTARITCGGNNIGSKSVHWYRQKPGQAPVLVVYDNNARPSGIPERISGSNFANTATLTISRVEAGDEADYYCHVWDSSSDHVVFGGGTKLTVL
B1: binds.
